The values below come from paper PMC8989531 (Nucleic Acids Research, 2022).

The assay addresses T1, RecD2-His (Bacillus subtilis RecD2 helicase with C-terminal His tag) (B. subtilis, UniProt O34481 1-798).
T1 sequence (looked up): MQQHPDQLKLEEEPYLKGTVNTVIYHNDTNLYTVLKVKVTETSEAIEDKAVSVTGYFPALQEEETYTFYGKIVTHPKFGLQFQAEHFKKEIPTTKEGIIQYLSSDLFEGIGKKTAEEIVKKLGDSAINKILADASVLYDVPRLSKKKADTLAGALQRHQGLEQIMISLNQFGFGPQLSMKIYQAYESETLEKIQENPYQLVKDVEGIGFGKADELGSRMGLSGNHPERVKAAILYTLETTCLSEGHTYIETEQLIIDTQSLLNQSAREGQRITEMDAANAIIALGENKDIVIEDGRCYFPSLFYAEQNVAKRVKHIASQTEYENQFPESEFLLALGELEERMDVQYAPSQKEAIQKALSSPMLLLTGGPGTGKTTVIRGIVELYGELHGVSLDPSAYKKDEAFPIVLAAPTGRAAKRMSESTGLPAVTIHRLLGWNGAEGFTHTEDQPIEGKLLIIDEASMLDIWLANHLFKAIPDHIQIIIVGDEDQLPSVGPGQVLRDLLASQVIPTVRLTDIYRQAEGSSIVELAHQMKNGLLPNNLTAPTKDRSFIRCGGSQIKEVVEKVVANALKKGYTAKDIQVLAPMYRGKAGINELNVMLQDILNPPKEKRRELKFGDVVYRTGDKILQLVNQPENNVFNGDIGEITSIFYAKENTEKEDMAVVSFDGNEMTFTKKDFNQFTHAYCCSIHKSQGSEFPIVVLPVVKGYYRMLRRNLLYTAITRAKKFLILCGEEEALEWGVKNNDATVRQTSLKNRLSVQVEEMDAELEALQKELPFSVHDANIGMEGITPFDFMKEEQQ
Put plainly: far-Western, overlay or dot blot.

B1: SsbA (Bacillus subtilis single-stranded DNA binding protein) (natural protein, B. subtilis, UniProt P37455 1-172, looked up)
chain: MLNRVVLVGRLTKDPELRYTPNGAAVATFTLAVNRTFTNQSGEREADFINCVTWRRQAENVANFLKKGSLAGVDGRLQTRNYENQQGQRVFVTEVQAESVQFLEPKNGGGSGSGGYNEGNSGGGQYFGGGQNDNPFGGNQNNQRRNQGNSFNDDPFANDGKPIDISDDDLPF
For the molecule B1, the binding result was “binds”.

B2: RecA (Bacillus subtilis recombinase) (natural protein, B. subtilis, UniProt P16971 1-348, looked up)
chain: MSDRQAALDMALKQIEKQFGKGSIMKLGEKTDTRISTVPSGSLALDTALGIGGYPRGRIIEVYGPESSGKTTVALHAIAEVQQQGGQAAFIDAEHALDPVYAQKLGVNIEELLLSQPDTGEQALEIAEALVRSGAVDIVVVDSVAALVPKAEIEGDMGDSHVGLQARLMSQALRKLSGAINKSKTIAIFINQIREKVGVMFGNPETTPGGRALKFYSSVRLEVRRAEQLKQGNDVMGNKTKIKVVKNKVAPPFRTAEVDIMYGEGISKEGEIIDLGTELDIVQKSGSWYSYEEERLGQGRENAKQFLKENKDIMLMIQEQIREHYGLDNNGVVQQQAEETQEELEFEE
On to B2, for which the binding result is “binds”.
